In US20160116468A1:

Assays:
[1] = target: endogenous EGFR expressed in COS7 cells; assay: diffusion coefficient change of endogenous EGFR (labelled Fab probe), COS7 cells
[2] = target: endogenous EGFR expressed in COS7 cells; assay: diffusion coefficient of endogenous EGFR after against before cetuximab, COS7 cells
[3] = target: endogenous EGFR expressed in COS7 cells; assay: diffusion coefficient change of endogenous EGFR (Alexa Fluor 647 Fab of mAb 199.12 as probe) in a COS7 cell, 20 µg/ml cetuximab

- change in diffusion coefficient (%) [1]: 40%
- Dc2 value as percent of Dc1 value [2]: 60%
- change in diffusion coefficient (%) [3]: 40%
Substance: cetuximab (antibody)
